Assay results: patent publication US20250000946A1 (WUXI BIOLOGICS IRELAND, published 2025)
Where a chain is given by its changes, count along the chain named. Numbers in names are those of the source. Where two headings read alike, the source gives them in different places. Values belong to the binder of their own block, whether it stands above or below them.

What was measured:
[1] = biological target: T1, Human IL-2Rα/β/γ complex (high affinity IL-2 receptor) (human, UniProt P01589 22-272; P14784 27-551; P31785 23-369); test: FACS, NK92 cells; EC50 fold vs T2U0.E44-1
T1 construct: whole, on cells
T1 sequence (looked up) 1: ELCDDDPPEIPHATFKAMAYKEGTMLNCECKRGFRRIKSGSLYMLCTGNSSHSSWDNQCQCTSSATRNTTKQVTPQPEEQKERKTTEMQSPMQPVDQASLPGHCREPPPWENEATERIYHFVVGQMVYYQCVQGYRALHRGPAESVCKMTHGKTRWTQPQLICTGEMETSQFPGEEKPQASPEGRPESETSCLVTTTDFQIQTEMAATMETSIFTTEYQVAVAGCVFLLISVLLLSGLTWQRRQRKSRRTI
T1 sequence (looked up) 2: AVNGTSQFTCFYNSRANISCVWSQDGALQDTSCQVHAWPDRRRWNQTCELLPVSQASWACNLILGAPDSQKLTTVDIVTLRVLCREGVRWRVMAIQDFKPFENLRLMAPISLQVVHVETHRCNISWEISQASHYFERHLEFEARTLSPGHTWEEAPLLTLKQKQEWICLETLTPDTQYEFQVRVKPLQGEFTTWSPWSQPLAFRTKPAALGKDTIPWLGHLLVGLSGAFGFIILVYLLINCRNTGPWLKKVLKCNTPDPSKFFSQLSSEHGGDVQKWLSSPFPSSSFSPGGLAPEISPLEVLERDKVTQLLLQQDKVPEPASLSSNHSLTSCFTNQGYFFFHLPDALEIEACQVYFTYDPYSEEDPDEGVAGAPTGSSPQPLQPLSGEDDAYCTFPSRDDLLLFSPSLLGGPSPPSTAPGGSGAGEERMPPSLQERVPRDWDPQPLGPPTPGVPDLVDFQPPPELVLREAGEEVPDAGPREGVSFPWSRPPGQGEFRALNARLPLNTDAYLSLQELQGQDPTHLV
T1 sequence (looked up) 3: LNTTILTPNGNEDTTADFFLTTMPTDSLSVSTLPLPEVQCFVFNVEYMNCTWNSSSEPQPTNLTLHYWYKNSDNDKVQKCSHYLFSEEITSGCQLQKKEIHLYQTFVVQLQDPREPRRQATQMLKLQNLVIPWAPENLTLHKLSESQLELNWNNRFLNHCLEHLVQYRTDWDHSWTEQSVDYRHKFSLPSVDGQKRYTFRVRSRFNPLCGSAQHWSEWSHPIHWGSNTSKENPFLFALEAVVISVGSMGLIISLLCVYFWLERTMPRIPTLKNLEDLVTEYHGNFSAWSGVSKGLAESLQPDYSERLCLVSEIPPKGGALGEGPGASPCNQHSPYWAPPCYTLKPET
Description: (§1) Human cutaneous T cell lymphoma HH cells, malignant non-Hodgkin's lymphoma NK92 cells and cutaneous T cell lymphoma MJ20 cells were used for binding assay. They both constitutively express IL-2Rβ (CD122) and […] (CD132), and NK92 and MJ20 also expresses IL-2Rα (CD25). HH, NK92 and MJ20 cells were cultured following ATCC guidance, then transferred to a 96-plate for binding analysis. Cells were incubated with IL-2/Fc fusion proteins at the indicated concentrations for 30 min at 4° C. to avoid internalization. Binding was detected by 2nd antibody of PE-anti-human Fc at 4° C. for another 30 min. The median fluorescence intensity (MFI) on HH and NK92 cells was measured using FACS.

[2] = biological target: T2, Human IL-2Rβ/γ (intermediate affinity IL-2 receptor) (human, UniProt P14784 27-551; P31785 23-369); test: FACS, HH cells; EC50 fold vs T2U0.E44-1
T2 construct: whole, on cells; also called IL-2Rβ/γc; IL-2Rβ (CD122) and γ (CD132)
T2 sequence (looked up) 1: T1 sequence (looked up) 2
T2 sequence (looked up) 2: T1 sequence (looked up) 3
Description: as §1

[3] = biological target: T2, Human IL-2Rβ/γ (intermediate affinity …); test: FACS, HH cells
Description: as §1

[4] = biological target: T1, Human IL-2Rα/β/γ complex (high affinity …); test: cell-based or functional assay
[5] = biological target: T2, Human IL-2Rβ/γ (intermediate affinity …); test: cell-based or functional assay
[6] = biological target: T1, Human IL-2Rα/β/γ complex (high affinity …); test: FACS, NK92 cells
Description: as §1

[7] = biological target: T2, Human IL-2Rβ/γ (intermediate affinity …); test: FACS, HH cells; remark: listed apart in the source
Description: as §1

[8] = biological target: T1, Human IL-2Rα/β/γ complex (high affinity …); test: FACS, MJ20 cells
Description: as §1

[9] = biological target: T2, Human IL-2Rβ/γ (intermediate affinity …); test: FACS, HH cells; EC50 fold vs T2U0.E44-1; remark: listed apart in the source
Description: as §1

[10] = biological target: T1, Human IL-2Rα/β/γ complex (high affinity …); test: FACS, MJ20 cells; EC50 fold vs T2U0.E44-1
Description: as §1

[11] = biological target: T1, Human IL-2Rα/β/γ complex (high affinity …); test: cell-based or functional assay; remark: listed apart in the source
[12] = biological target: T2, Human IL-2Rβ/γ (intermediate affinity …); test: cell-based or functional assay; remark: listed apart in the source

B1: W3XX115-T2U0.E44-15.uIgG4V1 (Fc fusion)
chain: APTSSSTKKTQLQLEHLLLDLQMILNGINNYKNPKLTRMLTVKFYMPKKATELKHLQCLEEELKPLEEVLNLAQSKNFHLRPRDLISNINVIVLELKGSETTFMCEYADETATIVEFLNRWITFCQSIIESKYGPPCPPCPAPEFLGGPSVFLFPPKPKDTLMISRTPEVTCVVVDVSQEDPEVQFNWYVDGVEVHNAKTKPREEQFNSTYRVVSVLTVLHQDWLNGKEYKCKVSNKGLPSSIEKTISKAKGQPREPQVYTLPPCQEEMTKNQVSLWCLVKGFYPSDIAVEWESNGQPENNYKTTPPVLDSDGSFFLYSRLTVDKSRWQEGNVFSCSVMHEALHNHYTQKSLSLSLG
heavy: EIQLQQSGPELVKPGASVKVSCKASGYSFTDYNMYWVKQSHGESLEWIGYIDPYNGGTRYNQKFKGKATLTVDKSSSTAFMHLNSLTSEDSAVYYCARNGHWDGAWFAYWGQGTLVTVSAASTKGPSVFPLAPCSRSTSESTAALGCLVKDYFPEPVTVSWNSGALTSGVHTFPAVLQSSGLYSLSSVVTVPSSSLGTKTYTCNVDHKPSNTKVDKRVESKYGPPCPPCPAPEFLGGPSVFLFPPKPKDTLMISRTPEVTCVVVDVSQEDPEVQFNWYVDGVEVHNAKTKPREEQFNSTYRVVSVLTVLHQDWLNGKEYKCKVSNKGLPSSIEKTISKAKGQPREPQVCTLPPSQEEMTKNQVSLSCAVKGFYPSDIAVEWESNGQPENNYKTTPPVLDSDGSFFLVSRLTVDKSRWQEGNVFSCSVMHEALHNHYTQKSLSLSLG
light: DIQMNQSPSSLSASLGDTITITCHASQNINVWLSWYQQKPGNIPKLLIYKASNLHTGVPSRFSGSRSGTGFTLTISSLQPEDIATYYCHQGQSYPFTFGSGTKLEIKRTVAAPSVFIFPPSDEQLKSGTASVVCLLNNFYPREAKVQWKVDNALQSGNSQESVTEQDSKDSTYSLSSTLTLSKADYEKHKVYACEVTHQGLSSPVTKSFNRGEC
notes: IL-2 del STLT and F42V; E44 format, IgG4
Affinity reduction [1]: 91.6 fold
Affinity reduction [2]: 18.8 fold
EC50 [3]: ~470 nM
Human Treg Potency EC50 (STAT5 phosphorylation) [4]: 54.9 nM
Human Treg Potency reduction [4]: 4620 fold
Human CD8+ T Potency EC50 (STAT5 phosphorylation) [5]: 312 nM
Human CD8+ T Potency reduction [5]: 30.3 fold
EC50 [6]: 2740 nM

B3: W3XX115-T2U0.E44-36.uIgG4V322 (Fc fusion)
chain: B1 chain with V42F, S127D, F145A, L146A
heavy: B1 heavy with F234A, L235A
light: B1 light
notes: IL-2 del STLT and S127D; E44 format, IgG4 FALA
EC50 [7]: 1320 nM
EC50 [8]: 98.5 nM
Affinity reduction [9]: 25.1 fold
Affinity reduction [10]: 2.4 fold
Potency in human Treg EC50 [11]: 0.1 nM
Potency reduction (Treg) [11]: 52.2 fold
Potency in human CD8+ T EC50 [12]: ~12.2 nM

B4: W3XX115-T2U0.E44-38.uIgG4V322 (Fc fusion)
chain: B1 chain with V42F, C125A, F145A, L146A
heavy: B1 heavy with F234A, L235A
light: B1 light
notes: IL-2 del STLT and C125A; E44 format, IgG4 FALA
EC50 [8]: 201 nM
Affinity reduction [9]: 400000 fold
Affinity reduction [10]: 4.8 fold
Potency in human Treg EC50 [11]: 5 nM
Potency reduction (Treg) [11]: 2540 fold
Potency in human CD8+ T EC50 [12]: 268 nM
Potency reduction (CD8+ T) [12]: 26.3 fold

B6: W3XX115-T2U0.E44-16.uIgG4V1 (Fc fusion)
chain: B1 chain with V42I
heavy: B1 heavy
light: B1 light
notes: IL-2 del STLT and F42I; E44 format, IgG4
Affinity reduction [1]: 44.3 fold
Affinity reduction [2]: 18.9 fold
EC50 [3]: 472 nM
Human Treg Potency EC50 (STAT5 phosphorylation) [4]: 31.2 nM
Human Treg Potency reduction [4]: 2620 fold
Human CD8+ T Potency EC50 (STAT5 phosphorylation) [5]: 251 nM
Human CD8+ T Potency reduction [5]: 24.4 fold
EC50 [6]: ~310 nM

B7: W3XX115-T2U0.E44-39.uIgG4V322 (Fc fusion)
chain: B1 chain with V42F, I128A, F145A, L146A
heavy: B1 heavy with F234A, L235A
light: B1 light
notes: IL-2 del STLT and I128A; E44 format, IgG4 FALA
EC50 [7]: 355 nM
EC50 [8]: 74200 nM
Affinity reduction [9]: 6.8 fold
Affinity reduction [10]: 1770 fold
Potency in human Treg EC50 [11]: 2 nM
Potency reduction (Treg) [11]: 1020 fold
Potency in human CD8+ T EC50 [12]: 99.9 nM
Potency reduction (CD8+ T) [12]: 9.8 fold

B8: W3XX115-T2U0.E44-37.uIgG4V322 (Fc fusion)
chain: B1 chain with V42F, S127N, I129S, F145A, L146A
heavy: B1 heavy with F234A, L235A
light: B1 light
notes: IL-2 del STLT, S127N and I129S (glycosylation design); E44 format, IgG4 FALA
EC50 [8]: 87.7 nM
Affinity reduction [9]: 190000 fold
Affinity reduction [10]: 2.1 fold
Potency in human Treg EC50 [11]: 8 nM
Potency reduction (Treg) [11]: 4060 fold
Potency in human CD8+ T EC50 [12]: ~17.6 nM

More lines, now with the values ahead:

EC50 [7]: 720 nM
EC50 [8]: 60.9 nM
Affinity reduction [9]: 13.7 fold
Affinity reduction [10]: 1.5 fold
Potency in human Treg EC50 [11]: 0.21 nM
Potency reduction (Treg) [11]: 104 fold
Potency in human CD8+ T EC50 [12]: 180 nM
Potency reduction (CD8+ T) [12]: 17.7 fold
B2: W3XX115-T2U0.E44-34.uIgG4V322 (Fc fusion)
chain: B1 chain with V42F, S127A, F145A, L146A
heavy: B1 heavy with F234A, L235A
light: B1 light
notes: IL-2 del STLT and S127A; E44 format, IgG4 FALA

Affinity reduction [1]: 74.6 fold
Affinity reduction [2]: 15.9 fold
EC50 [3]: 398 nM
Human Treg Potency EC50 (STAT5 phosphorylation) [4]: 0.53 nM
Human Treg Potency reduction [4]: 44.5 fold
Human CD8+ T Potency EC50 (STAT5 phosphorylation) [5]: 185 nM
Human CD8+ T Potency reduction [5]: 18 fold
EC50 [6]: 522 nM
B5: W3XX115-T2U0.E44-19.uIgG4V1 (Fc fusion)
chain: B1 chain with V42M
heavy: B1 heavy
light: B1 light
notes: IL-2 del STLT and F42M; E44 format, IgG4

EC50 [7]: 576 nM
EC50 [8]: 92.8 nM
Affinity reduction [9]: 10.9 fold
Affinity reduction [10]: 2.2 fold
Potency in human Treg EC50 [11]: 0.073 nM
Potency reduction (Treg) [11]: 37.1 fold
Potency in human CD8+ T EC50 [12]: 10.7 nM
Potency reduction (CD8+ T) [12]: 1.1 fold
B9: W3XX115-T2U0.E44-35.uIgG4V322 (Fc fusion)
chain: B1 chain with V42F, S127T, F145A, L146A
heavy: B1 heavy with F234A, L235A
light: B1 light
notes: IL-2 del STLT and S127T; E44 format, IgG4 FALA

Affinity reduction [1]: 33.1 fold
Affinity reduction [2]: 13.5 fold
EC50 [3]: 336 nM
Human Treg Potency EC50 (STAT5 phosphorylation) [4]: 2.06 nM
Human Treg Potency reduction [4]: 173 fold
Human CD8+ T Potency EC50 (STAT5 phosphorylation) [5]: 323 nM
Human CD8+ T Potency reduction [5]: 31.4 fold
EC50 [6]: 232 nM
B10: W3XX115-T2U0.E44-20.uIgG4V1 (Fc fusion)
chain: B1 chain with R38W, V42F
heavy: B1 heavy
light: B1 light
notes: IL-2 del STLT and R38W; E44 format, IgG4
